Source: paper PMC5332220 (Biochemistry, 2016)

Assays:
[1] = biological target: T1, SspB_milli (UniProt P45206 1-150, A58V); experiment: fluorescence polarisation
[2] = biological target: T1, SspB_milli; experiment: fluorescence polarisation; remark: listed apart in the source

B1: improved Light Inducible Dimer (iLID) (designed binder)
chain: MRGSHHHHHHGSLATTLERIEKNFVITDPRLPDNPIIFASDSFLQLTEYSREEILGRNCRFLQGPETDRATVRKIRDAIDNQTEVTVQLINYTKSGKKFWNVFHLQPMRDYKGDVQYFIGVQLDGTERLHGAAEREAVCLIKKTAFQIAEAANDENYF
modifications: flavin mononucleotide (FMN) cofactor; in the lit state a metastable covalent bond of FMN with Cys450
**Q.** What does the source list for B1?
**A.** fold weaker than the lit state [1]: ≥ 25 fold; Kd [2]: 56 ± 6 µM
